Data: patent publication US20230149558A1, “DUOCARMYCIN DERIVATIVE AND USE THEREOF” (The University of Tokyo, priority 2020, published 2023)
Values belong to the molecule of their own block, whether it stands above or below them.

Assays:
[1] = tested on: CEACAM5-positive MKN45 cells; assay: In vitro cytotoxicity test using CEA-V2122 and anticancer agent-labeled modified biotin (Cell Counting Kit-8); type: cell-based, human; conditions: complex of CEA-V2122 and Compound 5, molar ratio 1:2; 1.0E-11 to 6.0E-07 final molar concentration; 48 hours; FIG. 8
Description: (§1) A cytotoxicity test was carried out using an anticancer agent-labeled modified biotin. The anticancer agent-labeled modified biotin is a compound described as Compound 5. For the assay, first, CEACAM5-positive MKN45 cells and CEACAM5-negative DLD1 cells were seeded on a 96-well plate for cell culture, so that the cell count became 5×10^3 cells/well and the amount of the culture solution became 50 μL/well, and thereafter, the cells were cultured overnight. A solution containing a complex of CEA-V2122 and a […] modified biotin was prepared by mixing CEA-V2122 and Compound 5 to a molar ratio of 1:2, and then incubating the mixture at room temperature for 10 minutes. […]
(§2) To the cells that had been cultured overnight, the complex serial dilution solutions were added in an amount of 50 μL/well to each well of the plate to the final molar concentration (1.0E-11, 3.0E-11, 9.1E-11, 2.7E-10, 8.2E-10, 2.5E-09, 7.4E-09, 2.2E-08, 6.7E-08, 2.0E-07, and 6.0E-07). […] The dosage and administration were determined by the instruction manuals included with the kit, and after the addition of the reagent, the mixture was incubated for 1.5 hours at 37° C. in a CO2 incubator. Thereafter, the absorbance at 450 nm was measured, and a mean value was then calculated, followed by background collection. […]

[2] = tested on: CEACAM5-negative DLD1 cells; assay: as above; type: cell-based, human; conditions: complex of CEA-V2122 and Compound 5, molar ratio 1:2; 1.0E-11 to 6.0E-07 final molar concentration; 48 hours; FIG. 8
Description: as §1, §2

[3] = target: T1, Recombinant Human CEACAM-5/CD66e Protein, CF (R & D SYSTEMS) (human, UniProt P06731 35-685); assay: SPR, Biacore T200; CEACAM5 immobilized on CM5 chip, CEA-V2122 as analyte; single-cycle kinetics, bivalent analysis fit, KD=kd1/ka1
T1 construct: Bought recombinant protein, immobilized on a CM5 chip by amine coupling (279 RU); also called antigen CEACAM5
T1 sequence (looked up): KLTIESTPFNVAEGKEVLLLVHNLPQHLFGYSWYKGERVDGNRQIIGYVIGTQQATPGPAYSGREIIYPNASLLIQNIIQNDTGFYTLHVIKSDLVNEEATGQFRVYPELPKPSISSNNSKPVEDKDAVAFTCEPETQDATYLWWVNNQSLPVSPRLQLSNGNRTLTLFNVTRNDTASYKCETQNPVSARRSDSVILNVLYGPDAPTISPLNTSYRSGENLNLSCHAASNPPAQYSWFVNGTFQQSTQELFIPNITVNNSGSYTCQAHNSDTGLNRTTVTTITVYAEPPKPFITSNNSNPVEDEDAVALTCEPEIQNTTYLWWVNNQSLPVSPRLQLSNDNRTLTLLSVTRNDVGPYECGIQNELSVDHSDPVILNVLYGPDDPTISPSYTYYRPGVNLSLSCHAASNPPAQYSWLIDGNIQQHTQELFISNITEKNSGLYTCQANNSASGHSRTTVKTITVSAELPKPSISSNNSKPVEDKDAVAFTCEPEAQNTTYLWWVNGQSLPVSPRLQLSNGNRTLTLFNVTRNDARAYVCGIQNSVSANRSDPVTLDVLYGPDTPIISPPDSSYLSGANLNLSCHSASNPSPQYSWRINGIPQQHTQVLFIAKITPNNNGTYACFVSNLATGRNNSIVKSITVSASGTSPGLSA
Description: (§3) The affinity of CEA-V2122 for the antigen CEACAM5 was evaluated using a surface plasmon resonance (SPR) measuring device, Biacore T200 (GE Healthcare Life Sciences). Specifically, Recombinant Human CEACAM-5/CD66e Protein, CF (R & D SYSTEMS) was immobilized on Sensor Chip CM5 (GE Healthcare Life Sciences) using an amine-coupling kit (GE Healthcare Lite Sciences). The final amount of the ligand immobilized was 279 RU. Moreover, about the purified CEA-V2122, two-fold serial dilutions from 1E-08 to 6.25E-10 M were prepared as analytes. Regarding interaction analysis, data were obtained by single-cycle kinetics analysis.

[4] = target: T2, Recombinant Human CEACAM-5/CD66e Protein (Homo sapiens, UniProt P06731); assay: SPR (Biacore T200) affinity of CEA-V2122 for the antigen CEACAM5; type: binding
T2 construct: purchased R & D SYSTEMS
T2 sequence (P06731 35-676): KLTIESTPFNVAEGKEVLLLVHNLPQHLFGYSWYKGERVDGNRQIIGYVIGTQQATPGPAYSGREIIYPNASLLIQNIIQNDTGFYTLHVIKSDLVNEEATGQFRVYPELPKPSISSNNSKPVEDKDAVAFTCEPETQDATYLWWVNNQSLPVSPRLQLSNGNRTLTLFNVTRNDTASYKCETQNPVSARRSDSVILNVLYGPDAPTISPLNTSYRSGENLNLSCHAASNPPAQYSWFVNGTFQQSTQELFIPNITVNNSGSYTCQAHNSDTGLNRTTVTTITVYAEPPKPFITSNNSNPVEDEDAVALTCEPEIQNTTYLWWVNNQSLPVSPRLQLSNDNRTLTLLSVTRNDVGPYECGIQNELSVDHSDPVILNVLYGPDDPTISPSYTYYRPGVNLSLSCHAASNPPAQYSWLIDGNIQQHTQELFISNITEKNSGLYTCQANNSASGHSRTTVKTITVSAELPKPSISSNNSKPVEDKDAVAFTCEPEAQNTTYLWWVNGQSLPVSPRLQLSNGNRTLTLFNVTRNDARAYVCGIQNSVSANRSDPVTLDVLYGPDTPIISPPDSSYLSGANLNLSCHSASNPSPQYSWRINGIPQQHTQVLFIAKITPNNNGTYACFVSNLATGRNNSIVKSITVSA
Description: as §3, with “analysis. Using Biacore T200 Evaluation Software, version 2.0, the obtained data were subjected to curve fitting in a bivalent analysis mode, and the following values were obtained: ka1−3.208E+5, and kd1=3.461E-7.” for “analysis.”

[5] = target: T3, CEACAM5 (Homo sapiens, UniProt P06731); assay: Cell staining of CEACAM5-expressing cell line using FITC-labeled CEA-V2122; type: cell-based
T3 construct: endogenous in cells; host or cells: MKN-45 (CEACAM5-positive); DLD1 (CEACAM5-negative control)
T3 sequence (P06731 35-685 limits assumed): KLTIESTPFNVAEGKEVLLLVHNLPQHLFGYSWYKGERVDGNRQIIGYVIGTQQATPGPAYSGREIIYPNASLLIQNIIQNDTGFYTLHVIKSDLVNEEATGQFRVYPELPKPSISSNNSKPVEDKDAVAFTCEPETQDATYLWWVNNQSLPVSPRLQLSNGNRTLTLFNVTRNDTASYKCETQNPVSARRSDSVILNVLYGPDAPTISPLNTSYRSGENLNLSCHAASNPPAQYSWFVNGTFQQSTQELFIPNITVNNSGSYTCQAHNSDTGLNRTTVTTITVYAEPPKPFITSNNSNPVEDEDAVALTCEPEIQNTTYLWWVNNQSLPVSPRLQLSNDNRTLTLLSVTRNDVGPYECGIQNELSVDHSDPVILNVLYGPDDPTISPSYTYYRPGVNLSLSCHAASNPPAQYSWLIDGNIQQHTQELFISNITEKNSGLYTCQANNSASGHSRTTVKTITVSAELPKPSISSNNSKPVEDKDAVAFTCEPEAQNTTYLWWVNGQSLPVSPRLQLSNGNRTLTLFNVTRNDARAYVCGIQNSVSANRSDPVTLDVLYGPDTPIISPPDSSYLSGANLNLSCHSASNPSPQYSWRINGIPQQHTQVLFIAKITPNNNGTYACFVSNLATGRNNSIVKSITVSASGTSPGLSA
Description: In order to stain a CEACAM5 expression-positive cancer cell line, FITC labeling was carried out on the cell line, using 100 μg of a purified CEA-V2122 protein. Specifically, labeling was carried out using Fluorescein Labeling Kit—NH2 (DOJINDO LABORATORIES) in accordance with the dosage and administration described in the operating manual included with the kit, and the obtained product was defined to be CEA-V2122-FITC. Specific staining of the CEACAM5 expression-positive cancer cell line is as follows. That is, CEACAM5-positive human stomach cancer-derived MKN-45 cells and CEACAM5-negative human colon cancer-derived DLD1 cells were each seeded on a CELLSTAR, μClear, 96-well plate (Greiner) to a cell density of 2.0×10^4 cells/well, and thereafter, the cells were cultured overnight. Subsequently, a culture solution containing 20 nM CEA-V2122-FITC and 1 μM Hoechist was added to the 96-well plate to a concentration of 100 μL/well, and the obtained mixture was then reacted at 4° C. for 30 minutes. Thereafter, each image was taken using In Cell Analyzer 6000 (GE Healthcare Life Sciences).

[6] = CEACAM5 immobilized on Sensor Chip CM5 (279 RU), single-cycle kinetics, bivalent analysis mode

Molecule: COC(=O)c1cc2c([nH]1)C(=O)C=C1N(C(=O)c3cc4cc(OC)c(OCCNC(=O)[C@@H](NC(=O)[C@H](C)NC(=O)OCCOCCOCCn5cc(CCC(=O)NCCOCCOCCN(CC(=O)NCCCCNC(=O)CCCC[C@@H]6SC[C@@H]7NC(=N)N[C@@H]76)CC(=O)NCCCCNC(=O)CCCC[C@@H]6SC[C@@H]7NC(=N)N[C@@H]76)nn5)C(C)C)c(OC)c4[nH]3)C[C@H]3CC123 (some centres unmarked) [Compound 5]
cell growth ratio to control [1]: suppression of the cell growth of the CEACAM5-positive MKN45 cells was confirmed in a complex concentration-dependent manner | cell growth ratio to control [2]: such a concentration-dependent effect of suppressing the cell growth of the CEACAM5-negative DLD1 cells was not confirmed

Kd [3]: 1.08 pM
B1: CEA-V2122 (scFv)
chain: QVKLEQSGAEVVKPGASVKLSCKASGFNIKDSYMHWLRQGPGQRLEWIGWIDPENGDTEYAPKFQGKATFTTDTSANTAYLGLSSLRPEDTAVYYCNEGTPTGPYYFDYWGQGTLVTVSSGGGGSGGGGSGGGGSENVLTQSPSSMSVSVGDRVNIACSASSSVPYMHWLQQKPGKSPKLLIYLTSNLASGVPSRFSGSGSGTDYSLTISSVQPEDAATYYCQQRSSYPLTFGGGTKLEIKGGGGSGGGGAEAGITGTWSDQLGDTFIVTAGADGALTGTYENAVGGAESRYVLTGRYDSAPATDGSGTALGWTVAWKNNSKNAHSATTWSGQYVGGADAKINTQWLLTSGTTNANAWKSTLVGHDTFTKVKPSAASHHHHHH
notes: Fusion of an anti-CEACAM5 scFv with the mutant streptavidin V2122; also called scFv-V2122; CEA-V2122 fusion protein

ka1 [4, 6]: 3.208E+5 | kd1 [4, 6]: 3.461E-7 | KD=kd1/ka1 ([4]; bivalent analysis, KD=kd1/ka1): 1.078E−12
B2: CEA-V2122: scFv-type anti-CEACAM5 antibody bound with mutant streptavidin V2122 via an amino acid linker (GGGGSGGGG), SEQ ID NO: 3 (protein)
chain: QVKLEQSGAEVVKPGASVKLSCKASGFNIKDSYMHWLRQGPGQRLEWIGWIDPENGDTEYAPKFQGKATFTTDTSANTAYLGLSSLRPEDTAVYYCNEGTPTGPYYFDYWGQGTLVTVSSGGGGSGGGGSGGGGSENVLTQSPSSMSVSVGDRVNIACSASSSVPYMHWLQQKPGKSPKLLIYLTSNLASGVPSRFSGSGSGTDYSLTISSVQPEDAATYYCQQRSSYPLTFGGGTKLEIKGGGGSGGGGAEAGITGTWSDQLGDTFIVTAGADGALTGTYENAVGGAESRYVLTGRYDSAPATDGSGTALGWTVAWKNNSKNAHSATTWSGQYVGGADAKINTQWLLTSGTTNANAWKSTLVGHDTFTKVKPSAASHHHHHH

B3: CEA-V2122-FITC: purified CEA-V2122 protein labeled using Fluorescein Labeling Kit—NH2 (protein)
chain: QVKLEQSGAEVVKPGASVKLSCKASGFNIKDSYMHWLRQGPGQRLEWIGWIDPENGDTEYAPKFQGKATFTTDTSANTAYLGLSSLRPEDTAVYYCNEGTPTGPYYFDYWGQGTLVTVSSGGGGSGGGGSGGGGSENVLTQSPSSMSVSVGDRVNIACSASSSVPYMHWLQQKPGKSPKLLIYLTSNLASGVPSRFSGSGSGTDYSLTISSVQPEDAATYYCQQRSSYPLTFGGGTKLEIKGGGGSGGGGAEAGITGTWSDQLGDTFIVTAGADGALTGTYENAVGGAESRYVLTGRYDSAPATDGSGTALGWTVAWKNNSKNAHSATTWSGQYVGGADAKINTQWLLTSGTTNANAWKSTLVGHDTFTKVKPSAASHHHHHH
stained cell images (recognition of CEACAM5) ([5]; 20 nM CEA-V2122-FITC, 4° C. for 30 minutes, CEACAM5-positive MKN-45 vs CEACAM5-negative DLD1 cells, FIG. 5): specifically recognizes CEACAM5 on the surface of the cell membrane | time-series stained MKN45 cell images (localisation after binding) ([5]; MKN45 cells, time-series data, FIG. 6): the CEACAM5 stays on the surface of the cell membrane
